# Results reported in the supplement of paper PMC7877785.
# ± gives the uncertainty stated by the source.
# Experiment: self-splicing fitness, log relative to wild type (ln ratio); higher = more splicing; Tetrahymena group I intron in knt gene, E. coli kanamycin selection, DiMSum; sequences stand for … in CUCUCU…GGAGGGAAAAGUUAUCAGGCAUGCACCUGGUAGCUAGUCUUUAAACCAAUAGAUUGCAUCGGUUUAAAAGGCAAGACCGUCAAAUUGCGGGAAAGGGGUCAACAGCCGUUCAGUACCAAGUCUCAGGGGAAACUUUGAGAUGGCCUUGCAAAGGGUAUGGUAAUAAGCUGACGGACAUGGUCCUAACCACGCAGCCAAGUCCUAAGUCAACAGAUCUUCUGUUGAUAUGGAUGCAGUUCACAGACUAAAUGUCGGUCGGGGAAGAUGUAUUCUUCUCAUAAGAUAUAGUCGGACCUCUCCUUAAUGGGAGCUAGCGGAUGAAGUGAUGCAACACUGGAGCCGCUGGGAACUAAUUUGUAUGCGAAAGUAUAUUGAUUAGUUUUGGAGUACUCGUGGUCG
# In short: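 Fitness was computed with DiMSum as the error-weighted combination of replicate fold changes, kanamycin versus none, each normalised to wild type. The library randomised all eight intron nucleotides of the P1ex region, with the intron placed in the knt kanamycin-resistance gene on pET-22b(+) in E. coli BL21(DE3). Six replicate transformations were grown overnight at 37°C or 30°C on LB agar with or without 25 μg/mL kanamycin, plus 100 μg/mL carbenicillin, 50 μM IPTG and 0.2% rhamnose. Pooled colonies were amplicon-sequenced on an Illumina HiSeq 2500.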
Sequence,self-splicing fitness (ln) (30 °C),self-splicing fitness (ln) (37 °C)
ACUGAGCAAUAUUACGUGGC,-3.3 ± 0.22,-1.79 ± 0.25
GCUUAGCAAUAUUACGAGAA,-1.2 ± 0.27,-0.264 ± 0.22
AUCUAGCAAUAUUACGCAGC,-2.64 ± 0.35,-2.06 ± 0.31
ACUGAGCAAUAUUACGCCGC,-3.95 ± 0.34,-1.23 ± 0.49
GCUAAGCAAUAUUACGCUUC,-2.89 ± 0.18,-2.56 ± 0.23
CCUUAGCAAUAUUACGCGGC,-2.89 ± 0.27,-3.63 ± 0.42
UAGAAGCAAUAUUACGCUCG,-1.06 ± 0.13,-0.333 ± 0.12
UCGUAGCAAUAUUACGAUAU,-3.38 ± 0.31,-1.85 ± 0.37
GGUUAGCAAUAUUACGUUCC,-1.45 ± 0.11,-0.8 ± 0.12
UCGCAGCAAUAUUACGGCAA,-0.188 ± 0.079,0.0609 ± 0.11
AUACAGCAAUAUUACGAGGA,-3.26 ± 0.19,-0.911 ± 0.12
AUCUAGCAAUAUUACGUACG,-2.01 ± 0.23,-1.04 ± 0.2
GGCAAGCAAUAUUACGAUAC,-0.974 ± 0.076,-0.363 ± 0.087
GACGAGCAAUAUUACGACAU,-2.931 ± 0.021,-1.99 ± 0.036
UUUAAGCAAUAUUACGGGAG,-1.75 ± 0.089,-1.32 ± 0.1
CCUCAGCAAUAUUACGCGUA,-2.71 ± 0.21,-3.37 ± 0.28
UGCCAGCAAUAUUACGCCGU,-3.97 ± 0.39,-2.32 ± 0.32
AGAGAGCAAUAUUACGAAAG,-4.41 ± 0.27,-2.42 ± 0.22
AAUCAGCAAUAUUACGAUCC,0.138 ± 0.13,-0.291 ± 0.17
UACCAGCAAUAUUACGGCUC,-0.179 ± 0.074,-0.0529 ± 0.096
GUCUAGCAAUAUUACGUCCA,-1.07 ± 0.31,-0.455 ± 0.21
UUAGAGCAAUAUUACGGGGU,-2.83 ± 0.3,-2.06 ± 0.46
GUAUAGCAAUAUUACGGCAC,-0.331 ± 0.3,
AGGAAGCAAUAUUACGAAAG,-2.44 ± 0.23,-1.19 ± 0.35
UCCCAGCAAUAUUACGUCAA,-2.71 ± 0.18,-1.13 ± 0.16

Sequence,self-splicing fitness (ln) (30 °C),self-splicing fitness (ln) (37 °C)
CCCCAGCAAUAUUACGUCUG,-3.45 ± 0.16,-2.04 ± 0.14
GACGAGCAAUAUUACGGUAU,-3.43 ± 0.19,-2.08 ± 0.26
GUGCAGCAAUAUUACGGCUU,-0.306 ± 0.052,-0.128 ± 0.072
AUACAGCAAUAUUACGGUCG,-1.08 ± 0.068,-0.545 ± 0.094
AGUCAGCAAUAUUACGGUAA,-2.02 ± 0.12,-1.19 ± 0.099
GUAUAGCAAUAUUACGAAUG,-3 ± 0.24,-2.32 ± 0.28
UGUCAGCAAUAUUACGGCUU,-0.428 ± 0.12,-0.319 ± 0.17
GGUAAGCAAUAUUACGGGGA,,-2.42 ± 0.33
UACCAGCAAUAUUACGUACC,-2.33 ± 0.11,-2.23 ± 0.17
ACGUAGCAAUAUUACGAGAU,-2.82 ± 0.14,-2.23 ± 0.19
UUAAAGCAAUAUUACGAGUU,-2.82 ± 0.18,-1.38 ± 0.16
UAGAAGCAAUAUUACGGAAC,-1.25 ± 0.34,
GUAUAGCAAUAUUACGAUGA,-1.62 ± 0.16,-0.697 ± 0.14
GCUGAGCAAUAUUACGAAGA,-2.11 ± 0.21,-0.81 ± 0.17
CUGGAGCAAUAUUACGUAAU,-2.46 ± 0.29,
CGAUAGCAAUAUUACGCCUA,-2.11 ± 0.22,-1.38 ± 0.18
GUACAGCAAUAUUACGCCCA,-1.14 ± 0.4,0.32 ± 0.36
UGUCAGCAAUAUUACGCACG,-1.06 ± 0.12,-0.829 ± 0.13
AGUCAGCAAUAUUACGGCAA,-0.287 ± 0.083,-0.215 ± 0.081
GUCAAGCAAUAUUACGUAGG,-3.17 ± 0.14,-2.28 ± 0.15
CCCGAGCAAUAUUACGACGA,-3.44 ± 0.43,-1.6 ± 0.2
UCGUAGCAAUAUUACGACUG,-1.02 ± 0.2,-2.28 ± 0.34
UUAGAGCAAUAUUACGCCGG,-0.922 ± 0.19,0.69 ± 0.36
GACGAGCAAUAUUACGCCUC,-3.23 ± 0.37,-1.86 ± 0.38
AGAGAGCAAUAUUACGUCAC,,-0.851 ± 0.42

Sequence,self-splicing fitness (ln) (30 °C),self-splicing fitness (ln) (37 °C)
GACGAGCAAUAUUACGCAGU,-3.48 ± 0.28,-2.21 ± 0.23
GUGAAGCAAUAUUACGGAGU,-1.3 ± 0.072,-0.63 ± 0.091
ACUCAGCAAUAUUACGCCCA,-1.42 ± 0.13,-0.482 ± 0.15
ACAGAGCAAUAUUACGCCAG,-2.37 ± 0.35,-1.71 ± 0.49
AGCCAGCAAUAUUACGCAAA,-2.91 ± 0.34,-2.36 ± 0.2
GUUCAGCAAUAUUACGUCUA,-1.14 ± 0.14,-0.132 ± 0.13
CGCUAGCAAUAUUACGUACA,-2.62 ± 0.14,-1.35 ± 0.15
UGCGAGCAAUAUUACGCUGU,-3.76 ± 0.21,-2.24 ± 0.31
CUCCAGCAAUAUUACGCCAA,,-2.07 ± 0.27
UUUCAGCAAUAUUACGCUUA,-0.378 ± 0.086,0.0227 ± 0.12
GGUGAGCAAUAUUACGAAUU,-1.69 ± 0.36,-0.274 ± 0.38
UCUUAGCAAUAUUACGUAAU,-5 ± 0.45,-2.58 ± 0.2
CAGCAGCAAUAUUACGUAAU,-2.34 ± 0.16,-1.91 ± 0.15
ACCCAGCAAUAUUACGCUUU,-0.704 ± 0.049,0.0854 ± 0.064
AGUGAGCAAUAUUACGCACU,-2.97 ± 0.44,-2.24 ± 0.38
GCGCAGCAAUAUUACGGGUC,-2.71 ± 0.11,-0.449 ± 0.092
CUGGAGCAAUAUUACGCCCA,,-2.1 ± 0.5
CCUGAGCAAUAUUACGGCGA,-3.62 ± 0.46,-2.62 ± 0.38
CUCGAGCAAUAUUACGUUCG,,-3.15 ± 0.47
CGGAAGCAAUAUUACGAGCU,-2.93 ± 0.21,-3.07 ± 0.27
GCACAGCAAUAUUACGUAUC,-0.923 ± 0.061,-0.833 ± 0.066
AAGCAGCAAUAUUACGUCAG,-3.06 ± 0.2,-2.43 ± 0.23
CCAGAGCAAUAUUACGUCCA,-2.05 ± 0.33,-1.44 ± 0.35
AACGAGCAAUAUUACGCUUC,-3.1 ± 0.25,-1.7 ± 0.3
AUAUAGCAAUAUUACGCUUG,-1.42 ± 0.11,-0.589 ± 0.13

Sequence,self-splicing fitness (ln) (30 °C),self-splicing fitness (ln) (37 °C)
GGGAAGCAAUAUUACGCCUU,-1.8 ± 0.17,0.48 ± 0.15
CGGAAGCAAUAUUACGGGCA,-1.52 ± 0.16,-1.6 ± 0.19
UGCUAGCAAUAUUACGCAGA,-4.03 ± 0.31,-2.26 ± 0.17
UAAUAGCAAUAUUACGUAUA,-1.82 ± 0.17,-1.17 ± 0.17
GAUCAGCAAUAUUACGCAGC,-1.64 ± 0.11,-0.448 ± 0.13
GGGCAGCAAUAUUACGGACA,-1.97 ± 0.38,-0.246 ± 0.39
ACGUAGCAAUAUUACGGGCC,-2.66 ± 0.14,-0.629 ± 0.12
UGUCAGCAAUAUUACGAGGA,-2.46 ± 0.22,-0.886 ± 0.15
GAUGAGCAAUAUUACGAUUA,-2.57 ± 0.21,-1.4 ± 0.18
CCUAAGCAAUAUUACGCGAA,-2.23 ± 0.22,-2.61 ± 0.29
GCUCAGCAAUAUUACGAAAU,-1.13 ± 0.11,-0.319 ± 0.12
GAAAAGCAAUAUUACGUGUG,-2.31 ± 0.062,-1.06 ± 0.072
UCCGAGCAAUAUUACGUUGC,-3.03 ± 0.21,-2.16 ± 0.24
UGUGAGCAAUAUUACGGACG,-0.792 ± 0.12,-0.0879 ± 0.18
GUGAAGCAAUAUUACGGUUC,-2.13 ± 0.12,-1.19 ± 0.14
CCAUAGCAAUAUUACGGGGC,-2.41 ± 0.15,-2.95 ± 0.29
UGAGAGCAAUAUUACGUGCA,-1.53 ± 0.087,-0.611 ± 0.1
CUCAAGCAAUAUUACGGUAC,,-3.06 ± 0.37
UUGAAGCAAUAUUACGCUCG,0.0719 ± 0.11,0.419 ± 0.14
ACCCAGCAAUAUUACGUGCC,-1.98 ± 0.08,-0.963 ± 0.1
GUCGAGCAAUAUUACGGCGU,-0.43 ± 0.19,-0.689 ± 0.14
AUGCAGCAAUAUUACGACUA,-0.708 ± 0.12,-0.187 ± 0.11
UCGAAGCAAUAUUACGGACG,-0.371 ± 0.13,0.158 ± 0.12
